This is an account of results in patent US20210207126A1 (ADAGENE, published 2021).

Experiment [1] addresses T1, Recombinant human CTLA4-Fc (human, UniProt P16410 36-161, limits assumed).
T1 construct: Coated on the ELISA plate at 1 ug/mL; also called its antigen; not shown: Fc part
T1 sequence (looked up): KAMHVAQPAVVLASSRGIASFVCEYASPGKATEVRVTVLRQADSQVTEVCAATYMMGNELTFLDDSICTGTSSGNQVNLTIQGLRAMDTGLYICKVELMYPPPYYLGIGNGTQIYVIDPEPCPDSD
In words: ELISA on plate-coated recombinant human CTLA4-Fc as in Example 3 (FIG. 24A). On the procedure:
(§1) Recombinant human CTLA4-Fc was diluted to 1 μg/mL in PBS and coated on a Maxisorp plate at 4° C. overnight. Plates were blocked with PBS supplemented with 3% non-fat milk at 37° C. for 1 hour. After washing, 100 μL of 3-fold serial dilutions of antibodies were added to each well. After incubation at 37° C. for 1 hour, plates were washed four times, and 100 μL HRP conjugated anti-human IgG (Fab specific) (1:6000 dilution) was added to each well. Plates were incubated at 37° C. for 1 hour, washed four times, and then 50 μL TMB substrate solution was added to each well, and the plate was incubated at room temperature. Absorbance at 450 nm was measured after the reactions were stopped with 50 μL H₂SO₄ per well. The EC₅₀ was evaluated by fitting the ELISA data using the asymmetrical sigmoidal (five-parameter logistic equation) model of GraphPad Prism 6 software.
(In general: ELISA stands for enzyme-linked immunosorbent assay.)

For experiment [2], the target named is T1, Recombinant human CTLA4-Fc. Kind of experiment: ELISA on plate-coated recombinant human CTLA4-Fc as in Example 3 (FIG. 24B). How it is done: as §1
Experiment [3] concerns the target T1, Recombinant human CTLA4-Fc. Kind of experiment: ELISA on plate-coated recombinant human CTLA4-Fc, before protease cleavage, data batch 1. On the procedure:
as §1

Experiment [4] addresses T1, Recombinant human CTLA4-Fc. Kind of experiment: ELISA on plate-coated recombinant human CTLA4-Fc, before protease cleavage, data batch 2. How it is done:
as §1

Experiment [5] has as its target T1, Recombinant human CTLA4-Fc. Kind of experiment: ELISA on plate-coated recombinant human CTLA4-Fc, before protease cleavage, third block of Table 6 (set of FIG. 7C).
Experiment [6] deals with T1, Recombinant human CTLA4-Fc. Kind of experiment: ELISA on plate-coated recombinant human CTLA4-Fc as in Example 3 (FIG. 25). How it is done:
as §1

Experiment [7] addresses T1, Recombinant human CTLA4-Fc. Kind of experiment: ELISA on plate-coated recombinant human CTLA4-Fc, protease cleavage experiment, no treatment. On the procedure: as §1
The purified activatable antibodies were treated with the proteases which recognize the cleavage sequences, and were then tested to determine whether removal of the masking peptide restored their activity.

The target in experiment [8] is T2, human CD137 displayed on yeast cells (human, UniProt Q07011 24-186, limits assumed).
T2 construct: Yeast cells displaying human CD137 on their surface; also called human CD137 on the cell surface
In words: flow cytometry on yeast cells displaying human CD137, PE anti-human Fc. How it is done:
(§2) The masking efficiency was then measured through flow cytometry. Briefly, yeast cells displaying human CD137 on their surface washed twice with PBSA buffer, and 50 μL (1×10\hat{ }6) cells were dispensed into each well of a 96 well plate. Cells were then incubated with 3-fold serial dilutions of antibodies for 1 hour on ice, washed once with PBSA buffer, and then incubated with 100 μL of PE conjugated mouse anti-human Fc (1 μg/ml) for 30 minutes on ice. The cells were then washed once prior to analysis by flow cytometry (Beckman® CytoFlex).
On the technique in general: Flow cytometry measures light scatter and fluorescence of single cells or particles in a stream.

Experiment [9] deals with T2, human CD137 displayed on yeast cells. In words: flow cytometry on yeast cells displaying human CD137, PE anti-human Fc (column head prints EC50 over KD (nM)). How it is done: as §2

What is called Kd is the equilibrium constant for the complex coming apart.

Residue numbers refer to the chain shown, from its start.

B1: TY22402 (antibody, V domains shown)
VH: EVQLVESGGGLVQPGGSLRLSCAASGYSISSGYHWSWIRQAPGKGLEWLARIDWDDDKYYSTSLKSRLTISRDNSKNTLYLQLNSLRAEDTAVYYCARSYVYFDYWGQGTLVTVSS
VL: EVGSYIVHHSDCDAFYPYCDSSGRSAGGGGSPLGLAGSGGSDIQLTQSPSSLSASVGDRVTITCRASQSVRGRFLAWYQQKPGKAPKLLIYDASNRATGIPSRFSGSGSGTDFTLTISSLQPEDFATYYCQQSSSWPPTFGQGTKVEIKR
notes: IgG1 from HEK293F cells; peptide fused to the N-terminus of the light chain of TY21580; also called masking peptide B13180
Take B1: the “masking efficiency (EC50 / EC50 of parental TY21580)” value amounted to 243 fold in experiment [1], 554 fold in [2], 2210 fold in [3] and 377 fold in experiment [4].

B2: TY22775 (antibody, V domains shown)
VH: B1 VH
VL: EVGHSDCDAFYPYCDSSGRSAGGGGTPLGLAGSGGSDIQLTQSPSSLSASVGDRVTITCRASQSVRGRFLAWYQQKPGKAPKLLIYDASNRATGIPSRFSGSGSGTDFTLTISSLQPEDFATYYCQQSSSWPPTFGQGTKVEIKR
notes: TY22402 with the masking peptide shortened to 16 residues; expressed in mammalian cells; isotype not restated (parent construct IgG1)
For B2, the “masking efficiency (EC50 / EC50 of parental TY21580)” value in [1] was 168 fold.

B3: TY22566 (antibody, V domains shown)
VH: B1 VH
VL: EVGSYPNPASDCVPYYYACAYSGRSAGGGGSPLGLAGSGGSDIQLTQSPSSLSASVGDRVTITCRASQSVRGRFLAWYQQKPGKAPKLLIYDASNRATGIPSRFSGSGSGTDFTLTISSLQPEDFATYYCQQSSSWPPTFGQGTKVEIKR
notes: IgG1; derived from B13197 to remove a potential glycosylation site
With B3, the “masking efficiency (EC50 / EC50 of parental TY21580)” value in [5] stood at 489 fold.

B4: TY22565 (antibody, V domains shown)
VH: B1 VH
VL: B3 VL with N7Q, A9S
notes: as for B3
Take B4: the “masking efficiency (EC50 / EC50 of parental TY21580)” value in experiment [5] came to 632 fold.

B5: TY22401 (antibody, V domains shown)
VH: B1 VH
VL: EVGSYNFVADSCPDHPYPCSASGRSAGGGGSPLGLAGSGGSDIQLTQSPSSLSASVGDRVTITCRASQSVRGRFLAWYQQKPGKAPKLLIYDASNRATGIPSRFSGSGSGTDFTLTISSLQPEDFATYYCQQSSSWPPTFGQGTKVEIKR
notes: IgG1 from HEK293F cells; masking and cleavage peptide fused to the N-terminus of the light chain of TY21580; also called masking peptide B13189
For B5, the “masking efficiency (EC50 / EC50 of parental TY21580)” value was determined as 110 fold in [3] and 48 fold in experiment [4].

B6: TY22776 (antibody, V domains shown)
VH: B1 VH
VL: B2 VL with H4S, D8V, A9P, F10Y, P12Y, Y13A, D15A, S16Y
notes: TY22404 with the masking peptide shortened to 16 residues; expressed in mammalian cells; isotype not restated (parent construct IgG1)
With B6, the “masking efficiency (EC50 / EC50 of parental TY21580)” value in experiment [1] worked out at 296 fold.

B7: TY22404 (antibody, V domains shown)
VH: B1 VH
VL: B3 VL with A9S
notes: IgG1 from HEK293F cells; peptide fused to the N-terminus of the light chain of TY21580; also called masking peptide B13197
On to B7, for which the “masking efficiency (EC50 / EC50 of parental TY21580)” value in [6] worked out at 469 fold; in [1], 308 fold; in [2] it was 572 fold; in [3], 826 fold; in experiment [4] it was 385 fold; in [7], 216 fold.

B8: TY22563 (antibody, V domains shown)
VH: B1 VH
VL: B1 VL with I6Y, V7S, H8A, H9Y, S10P, D11A, A14S, F15H, D20Q
notes: IgG1; derived from B13192 to remove a potential glycosylation site
B8: the “masking efficiency (EC50 / EC50 of parental TY21580)” value in experiment [5] was determined as 144 fold.

B9: TY22564 (antibody, V domains shown)
VH: B1 VH
VL: B1 VL with I6Y, V7S, H8A, H9Y, S10P, D11A, A14S, F15H, D20N, S22A
notes: as for B8
Turning to B9, the “masking efficiency (EC50 / EC50 of parental TY21580)” value in [5] is 117 fold.

B10: TY21242 (antibody, V domains shown)
VH: EVQLVESGGGLVQPGGSLRLSCAASGFSLSTGGVGVGWIRQAPGKGLEWLALIDWADDKYYSPSLKSRLTISRDNSKNTLYLQLNSLRAEDTAVYYCARGGSDTVIGDWFAYWGQGTLVTVSS
VL: DIQLTQSPSSLSASVGDRVTITCRASQSIGSYLAWYQQKPGKAPKLLIYDASNLETGVPSRFSGSGSGTDFTLTISSLQPEDFATYYCQQGYYLWTFGQGTKVEIK
notes: also called parental antibody TY21242; parental CD137 antibody
With B10, in [8], the “masking efficiency (against parental TY21242)” value stood at 1 fold. For the same molecule, in experiment [9], the Kd is 0.28 nM.

B11: TY22591 (antibody, V domains shown)
VH: B10 VH
VL: EVGSYSSTHAHCHHSPANCISSGRSAGGGGSPLGLAGSGGSDIQLTQSPSSLSASVGDRVTITCRASQSIGSYLAWYQQKPGKAPKLLIYDASNLETGVPSRFSGSGSGTDFTLTISSLQPEDFATYYCQQGYYLWTFGQGTKVEIK
notes: Full IgG4 from mammalian cells; peptide fused to the N-terminus of the light chain of TY21242
For B11, the “masking efficiency (against parental TY21242)” value in experiment [8] worked out at 38.3 fold. Besides, in [9], the Kd was found to be 10.8 nM.

B12: TY22596 (antibody, V domains shown)
VH: B10 VH
VL: EVGSYYHDYDDCRVLPRRCFNSGRSAGGGGSPLGLAGSGGSDIQLTQSPSSLSASVGDRVTITCRASQSIGSYLAWYQQKPGKAPKLLIYDASNLETGVPSRFSGSGSGTDFTLTISSLQPEDFATYYCQQGYYLWTFGQGTKVEIK
notes: as for B11
Consider B12, for which the “masking efficiency (against parental TY21242)” value in experiment [8] came out at 20.8 fold. The Kd in experiment [9] amounted to 5.86 nM.

B13: TY22598 (antibody, V domains shown)
VH: B10 VH
VL: EVGSYSNNFASCLWRHRSCADSGRSAGGGGSPLGLAGSGGSDIQLTQSPSSLSASVGDRVTITCRASQSIGSYLAWYQQKPGKAPKLLIYDASNLETGVPSRFSGSGSGTDFTLTISSLQPEDFATYYCQQGYYLWTFGQGTKVEIK
notes: as for B11
Take B13: the “masking efficiency (against parental TY21242)” value in [8] is 30.5 fold. This molecule also gave a Kd in experiment [9] of 8.61 nM.

B14: TY22594 (antibody, V domains shown)
VH: B10 VH
VL: B12 VL with Y6D, H7T, D11F, R13P, V14I, P16R, R17H, F20D, N21S
notes: as for B11
Regarding B14, the “masking efficiency (against parental TY21242)” value in [8] was 83.7 fold. The Kd in experiment [9] was 23.6 nM.

B15: TY22595 (antibody, V domains shown)
VH: B10 VH
VL: EVGSYNDYNYHCKWRPSRCHNSGRSAGGGGSPLGLAGSGGSDIQLTQSPSSLSASVGDRVTITCRASQSIGSYLAWYQQKPGKAPKLLIYDASNLETGVPSRFSGSGSGTDFTLTISSLQPEDFATYYCQQGYYLWTFGQGTKVEIK
notes: as for B11
Consider B15, for which the “masking efficiency (against parental TY21242)” value in [8] amounted to 379 fold. Also, the Kd in [9] worked out at 107 nM.

B16: TY22599 (antibody, V domains shown)
VH: B10 VH
VL: B12 VL with Y6T, H7D, D8N, D11Y, R13P, V14R, P16R, R18K, F20Y, N21H
notes: as for B11
On to B16, for which, in experiment [8], the “masking efficiency (against parental TY21242)” value stood at 348 fold. In experiment [9], the Kd amounted to 98.1 nM.
